Assay results published in paper PMC11457862 (2024).
Where “and” joins values, the source holds several entries; their conditions need not be identical. Identical values can stand only once.

Target: human IL-2 (human, UniProt P60568 21-153)
Test: FACS

- EC50: 13.3 nM and 12.2 nM
B1: yeast-displayed 602 scFv (scFv, V domains shown)
VH: EVQLQESGPGLVAPSQSLSITCTVSGFSLTNYDISWIRQPPGKGLEWLGVIWTGGGTNYNSGFMSRLSITKDNSKSQVFLKMNSLQTDDTAIYYCVRQGRTPYWGQGTLVTVSA
VL: DIQVTQSPSSLSVSLGDRVTITCKASKDIYNRLAWYQQKPGNAPRLLISGATSLETGVPSRFSGSGSGKDYTLTITSLQTEDVATYYCQQFWGTPYTFGGGTKLEIK
